Measurements as given in patent publication US20240092898A1 (BIVICTRIX, published 2024).

Assays:
[1] = target: T1, CD7 (human, UniProt P09564 26-180, limits assumed); experiment: SPR; ratio of KD to WT
T1 construct: also called human CD7
T1 sequence (looked up): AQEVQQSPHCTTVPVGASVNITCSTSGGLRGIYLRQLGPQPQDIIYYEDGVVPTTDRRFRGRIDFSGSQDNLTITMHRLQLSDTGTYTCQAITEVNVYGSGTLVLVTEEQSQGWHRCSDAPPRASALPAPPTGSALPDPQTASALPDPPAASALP

[2] = target: T1, CD7; experiment: SPR

B1: 7-AA-1 (antibody, V domains shown)
VH: QVQLQESGAELVKPGASVKLSCKASGYTFTSYWMHWVKQRPGQGLEWIGKINPSNGRTNYNEKFKSKATLTVDKSSSTAYMQLSSLTSEDSAVYYCARGGVYYDLYYAALDYWGQGTTVTVSS
VL: DIELTQSPATLSVTPGDSVSLSCRASQSISNNLHWYQQKSHESPRLLIKSASQSISGIPSRFSGSGSGTDFTLSINSVETEDFGMYFCQQSNSWPYTFGGGTKLEIKR
Fold reduction in binding affinity compared to WT (Kd) [1]: 17 fold
Kd [2]: 44.5 nM
